Laboratory results published in patent US20110065647A1.

Target: rNaV1.3 channels (rat), P08104
Assay: cell-based or functional assay

Chain of rNaV1.3 channels (rat), P08104 (P08104 whole entry): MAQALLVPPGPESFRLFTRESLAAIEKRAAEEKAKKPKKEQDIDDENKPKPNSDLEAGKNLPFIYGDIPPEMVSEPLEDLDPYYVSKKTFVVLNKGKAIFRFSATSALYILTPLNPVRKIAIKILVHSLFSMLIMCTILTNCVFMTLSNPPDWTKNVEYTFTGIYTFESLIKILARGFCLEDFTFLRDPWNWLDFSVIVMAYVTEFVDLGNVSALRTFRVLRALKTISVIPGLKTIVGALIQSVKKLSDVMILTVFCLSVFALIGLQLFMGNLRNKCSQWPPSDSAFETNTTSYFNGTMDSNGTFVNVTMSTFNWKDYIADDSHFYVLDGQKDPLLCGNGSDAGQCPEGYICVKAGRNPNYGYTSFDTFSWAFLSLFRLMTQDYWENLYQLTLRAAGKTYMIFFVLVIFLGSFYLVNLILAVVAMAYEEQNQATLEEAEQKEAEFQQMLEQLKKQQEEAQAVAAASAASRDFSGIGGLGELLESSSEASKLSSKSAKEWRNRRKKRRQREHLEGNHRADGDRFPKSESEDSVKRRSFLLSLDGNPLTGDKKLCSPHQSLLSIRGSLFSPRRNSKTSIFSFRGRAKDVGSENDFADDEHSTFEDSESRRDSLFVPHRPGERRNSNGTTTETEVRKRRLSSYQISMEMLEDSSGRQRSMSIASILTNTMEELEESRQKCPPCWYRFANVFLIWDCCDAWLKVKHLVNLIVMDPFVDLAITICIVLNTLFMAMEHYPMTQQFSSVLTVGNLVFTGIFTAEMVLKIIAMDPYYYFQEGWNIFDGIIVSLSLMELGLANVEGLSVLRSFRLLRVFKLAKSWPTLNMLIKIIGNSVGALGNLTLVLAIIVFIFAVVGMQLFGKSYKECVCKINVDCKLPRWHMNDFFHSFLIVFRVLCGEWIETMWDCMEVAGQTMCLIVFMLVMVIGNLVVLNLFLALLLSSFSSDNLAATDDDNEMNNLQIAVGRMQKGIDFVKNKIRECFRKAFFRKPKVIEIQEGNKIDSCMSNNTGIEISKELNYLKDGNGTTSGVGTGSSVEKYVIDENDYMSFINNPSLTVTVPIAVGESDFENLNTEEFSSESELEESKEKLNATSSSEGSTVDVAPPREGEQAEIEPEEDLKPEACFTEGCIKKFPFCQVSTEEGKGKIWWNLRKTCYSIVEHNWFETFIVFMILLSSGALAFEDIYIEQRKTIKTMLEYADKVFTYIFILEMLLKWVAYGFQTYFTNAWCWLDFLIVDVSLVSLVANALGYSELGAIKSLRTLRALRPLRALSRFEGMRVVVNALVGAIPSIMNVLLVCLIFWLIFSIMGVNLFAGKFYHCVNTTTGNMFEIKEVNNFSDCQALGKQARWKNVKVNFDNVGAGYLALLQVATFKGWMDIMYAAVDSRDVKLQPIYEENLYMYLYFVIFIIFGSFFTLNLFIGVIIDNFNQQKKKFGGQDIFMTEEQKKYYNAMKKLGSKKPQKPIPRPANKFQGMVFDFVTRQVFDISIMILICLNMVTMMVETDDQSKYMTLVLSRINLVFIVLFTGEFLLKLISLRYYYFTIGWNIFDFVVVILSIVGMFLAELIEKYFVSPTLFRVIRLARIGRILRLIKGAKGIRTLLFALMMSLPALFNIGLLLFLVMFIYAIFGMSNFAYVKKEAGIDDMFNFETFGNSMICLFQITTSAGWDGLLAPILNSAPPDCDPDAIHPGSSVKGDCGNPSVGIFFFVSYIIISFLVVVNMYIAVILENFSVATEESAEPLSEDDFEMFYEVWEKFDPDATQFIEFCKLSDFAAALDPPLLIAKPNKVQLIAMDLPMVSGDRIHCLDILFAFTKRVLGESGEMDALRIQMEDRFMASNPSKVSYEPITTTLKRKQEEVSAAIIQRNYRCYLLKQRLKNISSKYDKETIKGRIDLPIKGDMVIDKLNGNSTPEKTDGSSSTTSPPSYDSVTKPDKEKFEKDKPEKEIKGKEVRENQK

B1: Peptide E (peptide)
peptide: DCLGFMRKCIPDNDKCCRPNLVCSRTHKWCKYVF
modifications: not checked
  IC50 Nav1.3 (µM); inhibition of channel current, patch clamp: 0.31 µM
